Tests used:
[1] = target: T1, human B7-H4-Fc (human); assay: SPR (Biacore)
T1 construct: also called hB7-H4-Fc; hB7-H4 Fc
Method in brief: (§1)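 Ligands (human B7-H4-Fc, human B7-H4-his, mouse B7-H4-Fc) were amine-coupled to CM5 chips at 50-100 RU. Analyte was injected at 100 nM to 0.1 nM in HBS-EP, pH 7.4, at 25 °C, with 180 s association and 1000 or 1200 s dissociation. Kinetics were fitted to a 1:1 Langmuir model.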

[2] = target: T2, human B7-H4-his (human, UniProt Q7Z7D3 25-259); assay: SPR (Biacore)
T2 construct: also called hB7-H4-his; hB7-H4 his; not shown: his tag
T2 sequence: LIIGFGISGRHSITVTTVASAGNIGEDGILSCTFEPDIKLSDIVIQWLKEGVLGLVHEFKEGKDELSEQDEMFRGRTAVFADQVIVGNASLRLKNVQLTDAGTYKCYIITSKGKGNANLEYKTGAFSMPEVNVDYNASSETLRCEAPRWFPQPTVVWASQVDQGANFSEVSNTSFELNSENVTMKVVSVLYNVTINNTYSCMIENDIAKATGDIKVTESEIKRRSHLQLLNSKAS
Method in brief: as §1

[3] = target: T3, mouse B7-H4-Fc (mouse; human); assay: SPR (Biacore)
T3 construct: also called mB7-H4-Fc; mB7-H4-hFc
T3 sequence (chain, as listed by the source): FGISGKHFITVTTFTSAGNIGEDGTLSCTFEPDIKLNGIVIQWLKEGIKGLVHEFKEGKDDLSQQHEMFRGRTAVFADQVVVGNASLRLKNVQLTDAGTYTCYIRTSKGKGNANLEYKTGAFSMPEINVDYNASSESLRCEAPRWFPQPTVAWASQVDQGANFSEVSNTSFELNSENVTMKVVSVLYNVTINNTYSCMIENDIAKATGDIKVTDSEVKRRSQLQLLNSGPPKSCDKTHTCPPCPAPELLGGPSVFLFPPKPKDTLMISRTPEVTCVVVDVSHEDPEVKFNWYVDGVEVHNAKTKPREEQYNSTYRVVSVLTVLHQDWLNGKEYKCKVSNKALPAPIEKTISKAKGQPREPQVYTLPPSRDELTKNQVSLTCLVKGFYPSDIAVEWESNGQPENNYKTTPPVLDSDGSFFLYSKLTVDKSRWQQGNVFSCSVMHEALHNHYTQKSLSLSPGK
Method in brief: as §1

[4] = target: T4, hB7-H4 (soluble human B7-H4, construct not named) (human, UniProt Q7Z7D3 25-259, limits assumed); assay: ELISA, hB7-H4
T4 construct: also called soluble hB7-H4
T4 sequence: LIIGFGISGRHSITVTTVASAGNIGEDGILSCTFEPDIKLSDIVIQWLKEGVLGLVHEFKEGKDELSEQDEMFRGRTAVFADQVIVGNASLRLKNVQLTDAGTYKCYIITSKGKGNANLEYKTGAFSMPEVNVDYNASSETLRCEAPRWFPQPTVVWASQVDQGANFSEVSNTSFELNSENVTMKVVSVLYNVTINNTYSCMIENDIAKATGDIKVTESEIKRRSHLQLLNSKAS
Method in brief: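 Each antibody, diluted in series, was incubated 1-1.5 h at RT on milk-blocked wells coated with ~1-2 μg/ml human or mouse B7-H4-Fc (or his-tagged) at 4° C overnight. An HRP anti-human Fab with TMB gave the OD450 signal.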

[5] = target: T4, hB7-H4 (soluble human B7-H4, construct …); assay: SPR (Biacore)
[6] = target: T5, mB7-H4 (soluble mouse B7-H4, construct not named) (mouse, UniProt Q7TSP5 25-257, limits assumed); assay: ELISA, mB7-H4
T5 sequence: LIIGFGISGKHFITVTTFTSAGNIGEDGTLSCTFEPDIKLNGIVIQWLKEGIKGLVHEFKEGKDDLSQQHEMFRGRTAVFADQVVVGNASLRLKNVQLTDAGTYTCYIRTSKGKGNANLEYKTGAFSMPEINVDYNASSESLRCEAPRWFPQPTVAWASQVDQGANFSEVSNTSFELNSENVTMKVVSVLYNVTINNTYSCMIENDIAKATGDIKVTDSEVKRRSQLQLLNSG
Experimental: (§2) About 1-2 μg/ml of human or mouse B7-H4-Fc (or his-tagged) was immobilized on ELISA plates (Immuno 2HB, Thermo scientific, cat #3455) at 4° C. overnight. After blocking the plates with 3% PBS+milk, serial diluted antibodies were added to the blocked plates and incubated at RT for 1-1.5 h. After washing the plates with PBS-T (0.05%), horse radish peroxidase (HRP)-conjugated antibody targeting the hFab was added to the plate. Signals were developed by adding 3,3′,5,5′-Tetramethylbenzidine (TMB (followed 1N of H₂SO₄ to stop the reaction. The OD at 450 nm was read by ELISA plate reader (Infinite M1000 from TECAN). GraphPad from Prism was used to plot OD450 vs. antibody concentration curve and to calculate the EC50 values.

[7] = target: T6, mouse B7-H4 expressed on cells (mouse, UniProt Q7TSP5 25-257); assay: flow cytometry, mB7-H4/CT26 cells
T6 construct: also called cellular mB7-H4; mB7-H4/CT26
T6 sequence: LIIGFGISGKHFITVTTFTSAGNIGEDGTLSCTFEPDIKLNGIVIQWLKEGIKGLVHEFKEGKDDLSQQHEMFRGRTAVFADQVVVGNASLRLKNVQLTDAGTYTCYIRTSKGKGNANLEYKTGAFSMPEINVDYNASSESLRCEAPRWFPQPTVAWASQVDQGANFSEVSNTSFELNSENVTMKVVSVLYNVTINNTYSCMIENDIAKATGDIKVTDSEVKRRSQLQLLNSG

[8] = target: T1, human B7-H4-Fc; assay: ELISA on coated hB7-H4-Fc
Experimental: as §2

[9] = target: T3, mouse B7-H4-Fc; assay: ELISA on coated mB7-H4-Fc
Experimental: as §2

[10] = target: T2, human B7-H4-his; assay: ELISA on coated hB7-H4-his
Experimental: as §2

[11] = target: T7, mouse B7-H4-his (mouse, UniProt Q7TSP5 25-257); assay: ELISA on coated mB7-H4-his
T7 construct: also called mB7-H4-his; mB7-H4-His; not shown: his tag
T7 sequence: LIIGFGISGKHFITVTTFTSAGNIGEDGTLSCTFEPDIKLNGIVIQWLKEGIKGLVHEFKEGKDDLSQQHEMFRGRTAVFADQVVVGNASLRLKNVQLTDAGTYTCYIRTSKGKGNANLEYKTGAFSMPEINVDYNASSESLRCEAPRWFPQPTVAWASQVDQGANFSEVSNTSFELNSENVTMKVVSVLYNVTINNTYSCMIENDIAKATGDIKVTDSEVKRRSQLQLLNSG
Experimental: as §2

[12] = target: T8, IgV domain of mouse B7-H4-Fc (mouse; human); assay: ELISA, coated mB7-H4 IgV domain
T8 construct: also called mB7-H4 IgV domain
T8 sequence (chain, as listed by the source): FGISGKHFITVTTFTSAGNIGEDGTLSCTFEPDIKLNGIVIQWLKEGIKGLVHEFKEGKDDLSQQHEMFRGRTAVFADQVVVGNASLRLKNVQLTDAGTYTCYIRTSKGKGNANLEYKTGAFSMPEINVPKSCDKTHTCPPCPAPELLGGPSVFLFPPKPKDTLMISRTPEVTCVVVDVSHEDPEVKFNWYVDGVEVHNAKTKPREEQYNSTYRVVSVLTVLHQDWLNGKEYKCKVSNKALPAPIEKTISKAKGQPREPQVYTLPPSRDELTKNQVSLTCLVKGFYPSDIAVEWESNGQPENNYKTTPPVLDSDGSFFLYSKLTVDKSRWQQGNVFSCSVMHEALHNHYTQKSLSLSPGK

[13] = target: T9, IgC domain of human B7-H4-Fc (human); assay: ELISA, coated hB7-H4 IgC domain
T9 construct: also called hB7-H4 IgC domain
T9 sequence (chain, as listed by the source): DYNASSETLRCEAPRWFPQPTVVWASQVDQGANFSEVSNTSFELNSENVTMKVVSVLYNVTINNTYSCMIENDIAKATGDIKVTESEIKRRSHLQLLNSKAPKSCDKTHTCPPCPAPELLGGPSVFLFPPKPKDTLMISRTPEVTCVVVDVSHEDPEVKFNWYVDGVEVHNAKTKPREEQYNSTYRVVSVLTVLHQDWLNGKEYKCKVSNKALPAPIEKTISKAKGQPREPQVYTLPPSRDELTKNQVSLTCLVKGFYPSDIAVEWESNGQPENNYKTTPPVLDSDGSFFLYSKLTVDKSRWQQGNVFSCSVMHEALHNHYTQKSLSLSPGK

[14] = target: T10, IgC domain of mouse B7-H4-Fc (mouse; human); assay: ELISA, coated mB7-H4 IgC domain
T10 construct: also called mB7-H4 IgC domain
T10 sequence (chain, as listed by the source): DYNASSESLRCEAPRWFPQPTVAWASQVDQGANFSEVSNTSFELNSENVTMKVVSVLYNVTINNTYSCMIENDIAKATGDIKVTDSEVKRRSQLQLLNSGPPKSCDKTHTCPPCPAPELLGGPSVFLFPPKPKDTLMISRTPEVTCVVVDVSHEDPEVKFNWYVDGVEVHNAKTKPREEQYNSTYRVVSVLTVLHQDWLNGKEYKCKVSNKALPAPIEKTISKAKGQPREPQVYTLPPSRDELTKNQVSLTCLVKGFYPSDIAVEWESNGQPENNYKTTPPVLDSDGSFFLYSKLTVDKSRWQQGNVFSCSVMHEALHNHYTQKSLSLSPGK

[15] = target: T11, IgV domain of human B7-H4-Fc (human); assay: ELISA on coated IgV domain of hB7-H4
T11 construct: also called hB7-H4 IgV domain
T11 sequence (chain, as listed by the source): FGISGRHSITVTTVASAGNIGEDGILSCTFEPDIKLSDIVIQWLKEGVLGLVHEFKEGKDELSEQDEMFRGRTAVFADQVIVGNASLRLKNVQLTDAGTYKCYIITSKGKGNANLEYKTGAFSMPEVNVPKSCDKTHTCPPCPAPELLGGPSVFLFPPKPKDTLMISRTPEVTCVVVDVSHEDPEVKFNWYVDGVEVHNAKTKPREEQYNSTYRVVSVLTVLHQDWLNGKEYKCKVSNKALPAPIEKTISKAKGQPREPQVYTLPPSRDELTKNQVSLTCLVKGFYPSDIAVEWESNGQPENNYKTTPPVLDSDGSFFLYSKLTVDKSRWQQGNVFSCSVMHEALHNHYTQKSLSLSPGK

[16] = target: T8, IgV domain of mouse B7-H4-Fc; assay: ELISA on coated IgV domain of mB7-H4
[17] = target: T5, mB7-H4 (soluble mouse B7-H4, construct …); assay: SPR (Biacore); values equal to Table 11

T1 sequence (chain, as listed by the source): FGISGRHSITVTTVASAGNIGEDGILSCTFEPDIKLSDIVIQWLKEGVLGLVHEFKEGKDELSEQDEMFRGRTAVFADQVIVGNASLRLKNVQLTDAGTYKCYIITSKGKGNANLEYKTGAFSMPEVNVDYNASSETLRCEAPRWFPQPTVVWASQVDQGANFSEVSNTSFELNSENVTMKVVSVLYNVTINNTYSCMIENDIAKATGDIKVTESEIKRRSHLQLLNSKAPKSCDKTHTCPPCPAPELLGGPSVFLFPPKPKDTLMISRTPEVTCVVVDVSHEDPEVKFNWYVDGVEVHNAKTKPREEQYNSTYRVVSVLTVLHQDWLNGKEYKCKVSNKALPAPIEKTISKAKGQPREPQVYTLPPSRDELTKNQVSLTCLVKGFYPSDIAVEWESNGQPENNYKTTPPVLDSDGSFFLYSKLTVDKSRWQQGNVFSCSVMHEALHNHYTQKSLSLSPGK

B1: Control antibody 1 (antibody 20502 described in US20190085080A1) (antibody, V domains shown)
VH: QLQLQESGPGLVKPSETLSLTCTVSGGSIKSGSYYWGWIRQPPGKGLEWIGNIYYSGSTYYNPSLRSRVTISVDTSKNQFSLKLSSVTAADTAVYYCAREGSYPNQFDPWGQGTLVTVSS
VL: EIVMTQSPATLSVSPGERATLSCRASQSVSSNLAWYQQKPGQAPRLLIYGASTRATGIPARFSGSGSGTEFTLTISSLQSEDFAVYYCQQYHSFPFTFGGGTKVEIK
notes: also called (+) control Ab1; (+) Ab1
[1]
  Kd: 0.45 nM
[2]
  Kd: 0.11 nM
[3]
  Kd: 0.509 nM
[4]
  EC50: 0.106 nM
[5]
  Kd: 0.499 nM
[6]
  EC50: 0.139 nM
[7]
  EC50: 2.06 nM
[8]
  EC50 (read off the curve): ~0.1 nM
[9]
  EC50 (read off the curve): ~0.1 nM
[10]
  EC50 (read off the curve): ~0.2 nM
[11]
  EC50 (read off the curve): ~0.2 nM
[12]
  EC50 (read off the curve): ~0.3 nM
[13]
  binding result: no binding (tested: log 1 nM (10 nM))
[14]
  binding result: no binding (tested: log 1 nM (10 nM))
[15]
  EC50 (read off the curve): ~0.2 nM
[16]
  EC50 (read off the curve): ~0.4 nM
[17]
  Kd: 0.499 nM

B2: 39A11/57G8 (antibody, human IgG1, V domains shown)
VH: EVQLLESGGGLVQPGGSLRLSCAASGFTFSSYGMHWVRQAPGKGLEWVASISSSSGYIYYADSVKGRFTISRDNSKNTLYLQMNSLRAEDTAVYYCARASSGMDVWGQGTTVTVSS
VL: DIQMTQSPSSLSASVGDRVTITCRASQSIRSYLNWYQQKPGKAPKLLIYYASSLQSGVPSRFSGSGSGTDFTLTISSLQPEDFATYYCQQYYSTPLTFGQGTKVEIK
notes: 39A11 VH with 57G8 VL
[1]
  Kd: 0.107 nM
[2]
  Kd: 0.0355 nM
[3]
  Kd: 0.0518 nM
[4]
  EC50: 0.06 nM
[5]
  Kd: 0.152 nM
[6]
  EC50: 0.051 nM
[7]
  EC50: 7.82 nM
[8]
  EC50 (read off the curve): ~0.08 nM
[9]
  EC50 (read off the curve): ~0.08 nM
[10]
  EC50 (read off the curve): ~0.1 nM
[11]
  EC50 (read off the curve): ~0.1 nM
[12]
  EC50 (read off the curve): ~0.2 nM
[13]
  binding result: no binding (tested: log 1 nM (10 nM))
[14]
  binding result: no binding (tested: log 1 nM (10 nM))
[15]
  EC50 (read off the curve): ~0.1 nM
[16]
  EC50 (read off the curve): ~0.07 nM
[17]
  Kd: 0.152 nM

— patent publication US20230312724A1 (KADMON, published 2023)
